The text below walks through data of US20240376183A1.

What all share (experiment): cell-based or functional assay
Test [1] deals with HIV-1 Env protein of virus strain 89-F1_2_25 (HIV-1).
The target of test [2] is HIV-1 Env of pseudovirus strain 6545.v4.c1 (HIV-1).
Test [3] deals with HIV-1 YU2 Env, wild type (YU2 pseudovirus) (HIV-1) (UniProt P35961).
Sequence of HIV-1 YU2 Env, wild type (YU2 pseudovirus) (HIV-1) (P35961 32-843 limits assumed): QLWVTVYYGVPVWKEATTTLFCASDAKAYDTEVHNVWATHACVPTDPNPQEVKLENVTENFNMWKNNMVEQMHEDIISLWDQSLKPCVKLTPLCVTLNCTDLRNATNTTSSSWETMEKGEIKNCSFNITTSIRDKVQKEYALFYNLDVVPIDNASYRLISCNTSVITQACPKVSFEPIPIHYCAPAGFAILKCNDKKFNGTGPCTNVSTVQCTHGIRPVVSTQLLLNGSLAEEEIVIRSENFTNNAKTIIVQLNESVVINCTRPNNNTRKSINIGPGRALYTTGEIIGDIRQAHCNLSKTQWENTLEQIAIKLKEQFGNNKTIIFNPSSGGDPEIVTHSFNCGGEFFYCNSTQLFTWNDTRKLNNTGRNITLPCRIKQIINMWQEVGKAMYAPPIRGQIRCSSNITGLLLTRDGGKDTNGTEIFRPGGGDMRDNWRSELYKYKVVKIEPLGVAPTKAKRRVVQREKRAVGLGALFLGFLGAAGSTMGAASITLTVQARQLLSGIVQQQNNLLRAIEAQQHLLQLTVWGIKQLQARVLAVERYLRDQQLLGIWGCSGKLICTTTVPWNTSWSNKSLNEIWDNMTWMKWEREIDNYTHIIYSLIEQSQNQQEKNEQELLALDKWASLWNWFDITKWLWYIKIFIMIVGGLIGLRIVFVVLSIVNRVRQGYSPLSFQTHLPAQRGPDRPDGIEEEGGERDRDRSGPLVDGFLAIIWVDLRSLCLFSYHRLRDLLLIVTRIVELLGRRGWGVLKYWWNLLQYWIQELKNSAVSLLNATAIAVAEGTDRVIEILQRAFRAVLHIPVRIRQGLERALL

Consider VRC01 (antibody), for which the IC50, TZM-bl pseudovirus neutralization assay in test [1] and in test [2] was above 20 µg/mL in each case. The substance also had an IC50, TZM-bl cell neutralization assay in test [3] of 0.107 µg/mL.

Turning to N6 (antibody), the IC50, TZM-bl pseudovirus neutralization assay in test [1] is above 20 µg/mL; in test [2] it was 16.2 µg/mL.

Take 3BNC117 (antibody): the IC50, TZM-bl pseudovirus neutralization assay in test [1] and in test [2] was above 20 µg/mL each time.

As to 8ANC131 (antibody), the IC50, TZM-bl cell neutralization assay in test [3] worked out at 0.256 µg/mL.

With VRC07-523-LS (antibody), the IC50, TZM-bl pseudovirus neutralization assay in test [2] is above 20 µg/mL.
